Results taken from article PMC11321297 (Cell Insight, 2024).

Target: the molecule itself
Experiment: cross-linking

B1: His-GLUD1^K84R (enzyme)
chain: not shown
Which “stoichiometry N” value does the source give for B1 here?
Its value is 6.
